Reference: article PMC3087504, “DNA Damage in Oocytes Induces a Switch of the Quality Control Factor TAp63α from Dimer to Tetramer”
Residue numbers refer to the chain shown, from its start.

T1: MBP-TAp63α (Mus musculus, UniProt O88898 40-680)
T1 sequence: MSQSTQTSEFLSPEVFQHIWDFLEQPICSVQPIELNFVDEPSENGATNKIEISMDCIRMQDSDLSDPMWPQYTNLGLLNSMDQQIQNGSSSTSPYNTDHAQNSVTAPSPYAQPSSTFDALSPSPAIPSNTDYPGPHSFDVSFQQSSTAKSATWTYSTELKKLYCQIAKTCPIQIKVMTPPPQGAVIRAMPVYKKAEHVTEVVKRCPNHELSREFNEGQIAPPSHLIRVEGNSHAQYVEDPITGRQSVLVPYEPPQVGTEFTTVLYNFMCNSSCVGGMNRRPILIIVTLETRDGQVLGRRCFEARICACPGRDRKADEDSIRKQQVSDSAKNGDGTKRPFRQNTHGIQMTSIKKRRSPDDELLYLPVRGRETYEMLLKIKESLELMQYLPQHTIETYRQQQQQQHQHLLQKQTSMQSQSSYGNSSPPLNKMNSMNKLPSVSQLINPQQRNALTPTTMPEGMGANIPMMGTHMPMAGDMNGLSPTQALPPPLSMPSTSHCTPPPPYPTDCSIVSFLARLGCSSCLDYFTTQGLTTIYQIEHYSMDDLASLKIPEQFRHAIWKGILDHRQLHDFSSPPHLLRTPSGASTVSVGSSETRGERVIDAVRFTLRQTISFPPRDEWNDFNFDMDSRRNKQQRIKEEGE

T2: MBP-TAp63αR (Mus musculus, UniProt O88898 40-680, R318H)
T2 sequence: T1 sequence with R279H

B1: p21 promoter response element (dsDNA)
DNA 1: GGCAGGAACATGTCCCAACATGTTGAGCCG
DNA 2: CGGCTCAACATGTTGGGACATGTTCCTGCC
B2: SELEX-based p63 binding sequence (dsDNA)
DNA 1: CCTATTCTAGACATGTGAGGACATGTCGATACTTATTCC
DNA 2: GGAATAAGTATCGACATGTCCTCACATGTCTAGAATAGG
B3: random sequence (dsDNA)
DNA 1: CGAGTTGTAAGTCGAATTGATACCATAATGCACTACACG
DNA 2: CGTGTAGTGCATTATGGTATCAATTCGACTTACAACTCG

Assays:
[1] = target: T1, MBP-TAp63α; experiment: fluorescence anisotropy; two-site fit, monomer concentration; second-site KD negative, uninterpreted; 10 mM potassium phosphate pH 7.6, 200 mM NaCl, room temperature, 30 min; 15 nM p21 DNA (300 nM for controls), protein 0.1-15 µM monomer; conditions: protein: recombinant; tags: N-term MBP; C-term His6; chain copies: 2; label: 5'-fluorescein
[2] = target: T2, MBP-TAp63αR; experiment: fluorescence anisotropy; 300 nM DNA; 10 mM potassium phosphate pH 7.6, 200 mM NaCl, room temperature, 30 min; 15 nM p21 DNA (300 nM for controls), protein 0.1-15 µM monomer; conditions: protein: recombinant; tags: N-term MBP; C-term His6; chain copies: 4; label: 5'-fluorescein
[3] = target: T1, MBP-TAp63α; experiment: as above; conditions: protein: recombinant; tags: N-term MBP; C-term His6; chain copies: 2; label: 5'-fluorescein

Row | Binder | Kd [1] [µM] | binding result [2] | binding result [3]
1 | B1 | 7.51 ± 1.32 |  | 
2 | B2 |  | no binding | 
3 | B3 |  | no binding | no binding
